According to patent publication US20200347143A1 (GLENMARK PHARMACEUTICALS S A, published 2020):

T1: human OX40 on cells (human, UniProt P43489 29-277)
T1 sequence (looked up): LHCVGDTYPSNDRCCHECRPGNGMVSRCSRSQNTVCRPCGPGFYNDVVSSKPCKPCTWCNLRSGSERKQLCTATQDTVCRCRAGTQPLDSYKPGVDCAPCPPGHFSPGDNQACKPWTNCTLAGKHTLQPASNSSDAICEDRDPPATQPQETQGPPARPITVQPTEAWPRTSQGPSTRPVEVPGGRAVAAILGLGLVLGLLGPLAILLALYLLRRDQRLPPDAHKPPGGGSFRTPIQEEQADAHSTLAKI

B1: 2H6 IgG1 LALA (antibody)
heavy: not shown
light: DIQLTQSPSSLSASVGDRVTITCRASESVDNYGISFMNWFQQKPGKAPKLLIYAASNQKSGVPSRFSGSGSGTDFTLTISSLQPEDFATYFCQQSKEVPLTFGQGTKVEIKRTVAAPSVFIFPPSDEQLKSGTASVVCLLNNFYPREAKVQWKVDNALQSGNSQESVTEQDSKDSTYSLSSTLTLSKADYEKHKVYACEVTHQGLSSPVTKSFNRGEC
B2: 7H11 IgG1 LALA (antibody, V domains shown)
VH: QVQLVQSGAEVKKPGASVKVSCKASGYTFTRYYMHWVRQAPGQGLEWMGWIYPGDGSTKYAQKFQGRVTMTRDTSISTAYMELSRLRSDDTAVYYCAREYGNYDYWGQGTLVTVSS
VL: DIVMTQSPDSLAVSLGERATINCKSSQSLLNSGNQKNYLAWYQQKPGQPPKLLIYGASTRESGVPDRFSGSGSGTDFTLTISSLQAEDVAVYYCQNDHSYPYTFGQGTKLEIKR
B3: Tetra-14 (bispecific antibody, human IgG1, kappa, L234A L235A)
heavy: not shown
light: B1 light
B4: Tetra-15 (antibody, human IgG1, kappa, L234A L235A)
heavy: not shown
light: B1 light
B5: Tetra-18 (antibody, human IgG1, kappa, L234A L235A)
heavy: not shown
light: B1 light
B6: Tetra-19 (bispecific antibody, human IgG1, kappa, L234A L235A)
heavy 1: QVQLVQSGAEVKKPGASVKVSCKASGYTFTRYYMHWVRQAPGQGLEWMGWIYPGEGSTKYAQKFQGRVTMTRDTSISTAYMELSRLRSDDTAVYYCAREYGNYDYWGQGTLVTVSSASTKGPSVFPLAPSSKSTSGGTAALGCLVKDYFPEPVTVSWNSGALTSGVHTFPAVLQSSGLYSLSSVVTVPSSSLGTQTYICNVNHKPSNTKVDKKVEPKSCDKTHTCPPCPAPEAAGGPSVFLFPPKPKDTLMISRTPEVTCVVVDVSHEDPEVQFKWYVDGVEVHNAKTKPREEQYNSTFRVVSVLTVLHQDWLNGKEYKCKVSNKALPAPIEKTISKTKGQPREPAVYTLPPSREEMTKNQVKLVCLVTGFYPSDIAVEWESSGQPENNYYTTPPMLDSDGSFSLVSWLNVDKSRWQQGNIFSCSVMHEALHNRFTQKSLSLSPGGGGGTEVQLVESGGGLVQPGGSLRLSCAVSGYSITSDYAWNWIRQAPGKCLEWMGYISYSGSTAYNPSLKSRITISRDTSKNTFYLQMSSLRAEDTAVYYCARGPYNYLAYWGQGTLVTVSSGGGGSGGGGSGGGGSDIQLTQSPSSLSASVGDRVTITCRASESVDNYGISFMNWFQQKPGKAPKLLIYAASNQKSGVPSRFSGSGSGTDFTLTISSLQPEDFATYFCQQSKEVPLTFGCGTKVEIL
heavy 2: QVQLVQSGAEVKKPGASVKVSCKASGYTFTRYYMHWVRQAPGQGLEWMGWIYPGEGSTKYAQKFQGRVTMTRDTSISTAYMELSRLRSDDTAVYYCAREYGNYDYWGQGTLVTVSSASTKGPSVFPLAPSSKSTSGGTAALGCLVKDYFPEPVTVSWNSGALTSGVHTFPAVLQSSGLYSLSSVVTVPSSSLGTQTYICNVNHKPSNTKVDKKVEPKSCDKTHTCPPCPAPEAAGGPSVFLFPPKPKDTLMISRTPEVTCVVVDVSHEDPEVKFNWYVDGVEVHNAKTKPREEQYNSTYRVVSVLTVLHQDWLNGKEYKCKVSNKALPAPIEKTISKAKGQPREPEVATFPPSRDELTKNQVTLVCLVTGFYPSDIAVEWESNGQPENNYKTDPPLLESQGSFALSSRLRVDKSRWQQGNVFSCSVMHEALHNHYTQKSLSLSPGGGGGTQVQLVQSGAEVKKPGASVKVSCKASGYTFTRYYMHWVRQAPGQGLEWMGWIYPGEGSTKYAQKFQGRVTMTRDTSISTAYMELSRLRSDDTAVYYCAREYGNYDYWGQGTLVTVSSASTKGPSVFPLAPSSKSTSGGTAALGCLVKDYFPEPVTVSWNSGALTSGVHTFPAVLQSSGLYSLSSVVTVPSSSLGTQTYICNVNHKPSNTKVDKKVEPKSC
light: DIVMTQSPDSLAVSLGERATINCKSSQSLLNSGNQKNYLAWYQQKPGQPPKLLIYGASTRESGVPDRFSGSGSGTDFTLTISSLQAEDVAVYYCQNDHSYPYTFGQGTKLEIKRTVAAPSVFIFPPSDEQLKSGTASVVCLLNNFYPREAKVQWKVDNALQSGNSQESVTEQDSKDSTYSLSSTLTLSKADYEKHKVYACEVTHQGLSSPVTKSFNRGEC
B7: Tetra-20 (bispecific antibody, human IgG1, kappa, L234A L235A)
heavy 1: EVQLVESGGGLVQPGGSLRLSCAVSGYSITSDYAWNWIRQAPGKGLEWMGYISYSGSTAYNPSLKSRITISRDTSKNTFYLQMSSLRAEDTAVYYCARGPYNYLAYWGQGTLVTVSSASTKGPSVFPLAPSSKSTSGGTAALGCLVKDYFPEPVTVSWNSGALTSGVHTFPAVLQSSGLYSLSSVVTVPSSSLGTQTYICNVNHKPSNTKVDKKVEPKSCDKTHTCPPCPAPEAAGGPSVFLFPPKPKDTLMISRTPEVTCVVVDVSHEDPEVQFKWYVDGVEVHNAKTKPREEQYNSTFRVVSVLTVLHQDWLNGKEYKCKVSNKALPAPIEKTISKTKGQPREPAVYTLPPSREEMTKNQVKLVCLVTGFYPSDIAVEWESSGQPENNYYTTPPMLDSDGSFSLVSWLNVDKSRWQQGNIFSCSVMHEALHNRFTQKSLSLSPGGGGGTQVQLVQSGAEVKKPGASVKVSCKASGYTFTRYYMHWVRQAPGQCLEWMGWIYPGEGSTKYAQKFQGRVTMTRDTSISTAYMELSRLRSDDTAVYYCAREYGNYDYWGQGTLVTVSSGGGGSGGGGSGGGGSDIVMTQSPDSLAVSLGERATINCKSSQSLLNSGNQKNYLAWYQQKPGQPPKLLIYGASTRESGVPDRFSGSGSGTDFTLTISSLQAEDVAVYYCQNDHSYPYTFGCGTKLEIL
heavy 2: EVQLVESGGGLVQPGGSLRLSCAVSGYSITSDYAWNWIRQAPGKGLEWMGYISYSGSTAYNPSLKSRITISRDTSKNTFYLQMNSLRAEDTAVYYCARGPYNYLAYWGQGTLVTVSSASTKGPSVFPLAPSSKSTSGGTAALGCLVKDYFPEPVTVSWNSGALTSGVHTFPAVLQSSGLYSLSSVVTVPSSSLGTQTYICNVNHKPSNTKVDKKVEPKSCDKTHTCPPCPAPEAAGGPSVFLFPPKPKDTLMISRTPEVTCVVVDVSHEDPEVKFNWYVDGVEVHNAKTKPREEQYNSTYRVVSVLTVLHQDWLNGKEYKCKVSNKALPAPIEKTISKAKGQPREPEVATFPPSRDELTKNQVTLVCLVTGFYPSDIAVEWESNGQPENNYKTDPPLLESDGSFALSSRLRVDKSRWQQGNVFSCSVMHEALHNHYTQKSLSLSPGGGGGTEVQLVESGGGLVQPGGSLRLSCAVSGYSITSDYAWNWIRQAPGKGLEWMGYISYSGSTAYNPSLKSRITISRDTSKNTFYLQMNSLRAEDTAVYYCARGPYNYLAYWGQGTLVTVSSASTKGPSVFPLAPSSKSTSGGTAALGCLVKDYFPEPVTVSWNSGALTSGVHTFPAVLQSSGLYSLSSVVTVPSSSLGTQTYICNVNHKPSNTKVDKKVEPKSC
light: B1 light
B8: Tetra-21 (bispecific antibody, human IgG1, kappa, L234A L235A)
heavy 1: B6 heavy 1
heavy 2: EVQLVESGGGLVQPGGSLRLSCAVSGYSITSDYAWNWIRQAPGKCLEWMGYISYSGSTAYNPSLKSRITISRDTSKNTFYLQMNSLRAEDTAVYYCARGPYNYLAYWGQGTLVTVSSGGGGSGGGGSGGGGSDIQLTQSPSSLSASVGDRVTITCRASESVDNYGISFMNWFQQKPGKAPKLLIYAASNQKSGVPSRFSGSGSGTDFTLTISSLQPEDFATYFCQQSKEVPLTFGCGTKVEIKRTGGGGTDKTHTCPPCPAPEAAGGPSVFLFPPKPKDTLMISRTPEVTCVVVDVSHEDPEVKFNWYVDGVEVHNAKTKPREEQYNSTYRVVSVLTVLHQDWLNGKEYKCKVSNKALPAPIEKTISKAKGQPREPEVATFPPSRDELTKNQVTLVCLVTGFYPSDIAVEWESNGQPENNYKTDPPLLESQGSFALSSRLRVDKSRWQQGNVFSCSVMHEALHNHYTQKSLSLSPGGGGGTQVQLVQSGAEVKKPGASVKVSCKASGYTFTRYYMHWVRQAPGQGLEWMGWIYPGEGSTKYAQKFQGRVTMTRDTSISTAYMELSRLRSDDTAVYYCAREYGNYDYWGQGTLVTVSSASTKGPSVFPLAPSSKSTSGGTAALGCLVKDYFPEPVTVSWNSGALTSGVHTFPAVLQSSGLYSLSSVVTVPSSSLGTQTYICNVNHKPSNTKVDKKVEPKSC
light: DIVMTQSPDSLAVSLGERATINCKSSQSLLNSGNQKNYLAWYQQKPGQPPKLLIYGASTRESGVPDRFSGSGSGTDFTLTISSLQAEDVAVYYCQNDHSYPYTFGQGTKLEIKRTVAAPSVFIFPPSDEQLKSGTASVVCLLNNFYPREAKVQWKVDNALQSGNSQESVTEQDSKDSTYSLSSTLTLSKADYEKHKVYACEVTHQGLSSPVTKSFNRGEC
B9: Tri-8 (bispecific antibody, human IgG1, kappa, L234A L235A)
heavy 1: B6 heavy 1
heavy 2: QVQLVQSGAEVKKPGASVKVSCKASGYTFTRYYMHWVRQAPGQGLEWMGWIYPGEGSTKYAQKFQGRVTMTRDTSISTAYMELSRLRSDDTAVYYCAREYGNYDYWGQGTLVTVSSASTKGPSVFPLAPSSKSTSGGTAALGCLVKDYFPEPVTVSWNSGALTSGVHTFPAVLQSSGLYSLSSVVTVPSSSLGTQTYICNVNHKPSNTKVDKKVEPKSCDKTHTCPPCPAPEAAGGPSVFLFPPKPKDTLMISRTPEVTCVVVDVSHEDPEVKFNWYVDGVEVHNAKTKPREEQYNSTYRVVSVLTVLHQDWLNGKEYKCKVSNKALPAPIEKTISKAKGQPREPEVATFPPSRDELTKNQVTLVCLVTGFYPSDIAVEWESNGQPENNYKTDPPLLESQGSFALSSRLRVDKSRWQQGNVFSCSVMHEALHNHYTQKSLSLSPGK
light: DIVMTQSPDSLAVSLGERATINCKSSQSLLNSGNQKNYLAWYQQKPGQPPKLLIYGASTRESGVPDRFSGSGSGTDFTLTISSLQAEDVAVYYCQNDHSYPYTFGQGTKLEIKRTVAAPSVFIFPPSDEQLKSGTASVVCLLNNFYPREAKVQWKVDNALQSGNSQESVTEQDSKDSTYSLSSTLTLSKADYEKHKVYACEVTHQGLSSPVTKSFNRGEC

Molecular target: T1, human OX40 on cells
Assay: cell-based or functional assay

Binder	% donor responder (>2), SEB assay, IL-2 release [%]	Mean, normalized IL-2 release, SEB assay
B1	25	1.45
B2	6	0.81
B3	40	1.65
B4	0	0.93
B5	0	0.88
B6	0	1
B7	0	1.14
B8	8	1.32
B9	0	0.96
